Results as given in the nanobody polyreactivity screen of Harvey et al. (2022).

Assay: yeast display, Sf9 membrane polyspecificity reagent, FACS + sequencing; frameworks hold sequencing errors
In short: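 Using colony PCR, genes from sorted yeast display clones were amplified, then sequenced on MiSeq at 2 × 250 and filtered by CDR length. The clones had been stained with 10% biotinylated, detergent-solubilized Sf9 membrane reagent for 1 hour at 4 °C and sorted by FACS into low and high (top ~1%) gates on anti-HA and streptavidin fluorescence. Polyreactivity labels come from the gate of origin.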

Sequence | polyreactivity (PSR sort gate)
QVQLVESGGGLVQAGGSLRLICAASGSIFRLYAMGWYRQAPGKERELVAAIRWSGGRTYYADSVKGRFTISRDNAKNTVYLQMNSLKPEDTAVYYCAADYYLPAYPPQTFGYWGQGTQVTVSS | high polyreactivity
QVQLVESGGGLVQAGGSLRLSCAASGSIFYYYTMGWYRQAPGKERELVAAINSGGNTYYADSVKGRFTISRDNAKNTVYLQMNSLKPEDTAVYYCAAGPLYYDYDYWGQGTQVTVSS | low polyreactivity
QVQLVESGGGLVQAGGSLRLSCAASGFTFRRYAMGWYRQAPGKERELVAVITTGGSTYYADSVKGRFTISRDNAKYTVYLQMNSLKPEDTAVYYCAARYYWYSQEYVMSSWWGDYWGLGTQVTVSS | high polyreactivity
QVHLVESGGGLVQAGGSLRLSCAASGRIFNSYAMGWYRQAPGKERELVAAISRNGGITYYADSVKGRFTISRDNAKNTVYLQMNSLKPEDTAVYYCNADCSRRRYSSDYWGQGTQVTVSS | high polyreactivity
QVQLVESGGGLVQAGGSLRLSCAASGLTINYYAMGLYRQAPGKERELVAAITWRGGSTYYADSVKGRFTISRDNAKNTVYLQMNSLKPEDTAVYYCAADPGPYGYYYWGQGTQVTVSS | low polyreactivity
QVQLVESGGGLVQAGGSLRLSCAASGSTFGGYAMGWYRQAPGKERELVAAINSGGSTYYADSVKGRFTISRDNAKNTVYLQMNSLKPEDTSVYYCNADSQVLRDYISDYWGQGTQVTVSS | low polyreactivity
EDQLEESGGGLVQAGGSLRLSCAASGLIFPSYVMGWYRQAPGKERELVASISRVGSTYADSVKGRFTISRDNAKNTVYLQMNSLKPEDTAVYYCAKQVVWRGFRGLDYWGQGTQVTLSS | high polyreactivity
QVQLVESGGGLFQAGGSLRLSCAASGTTFAYYTMGWYIQAPGTERELVAAITSGGRTSYADSVKGRFTISRDNAKNTVYLLMNSLKPEDTAFFSCAKCRKPGYYYWGQGNQVTVSS | high polyreactivity
QVQLVESGGGLVQAGGSLRLSCAASGFTFYRYARGWYRQAPGKERELVAAISSDGTTYYADSVKGRFTISRDNATNTVYLQMNSLKPEDTAVYYCAKRGYYRSRRYDYWGQGTQVTVSS | high polyreactivity
QVQLVESGGGLVQAGGSLRLSCAASGFTFVYNAMGWYRPAPGKERELVAAITSGGNTYYADSVKGRFTISRDNAKNTVYLQMNSLKPEDTAVYYCAKRGYGRYYAYDYWGQGTQVTVSS | high polyreactivity
QVQLVESGGGLVQAGGSLRLSCAASGLTFSYYAMGWYRQAPGKERELVAAISITGSTNYADSVKGRFTISRDNAKNTVYLQMNSLKPEDTAVYYCAARRSLSVLPYYYWGQGTQVTVSS | high polyreactivity
QVQLVESGGGLVQAGGSLRLSCAASGSTFRSYAMGWYRQAPGKERELVAAISSTGGSTYYADSVKCRFTISRDTAKNTVYFQMNSLKPVDTAVYYCAADFLYYEYDYWGQGTQVTVSS | low polyreactivity
QVQLVESGGGLVQAGGSLRLSCAASGITFRGNAMGWYRQAPGKERELVATISSGGITNYADSVKGRFTISRDNAKNTVYLQMNSLKPEDTAVYSCAADLFVHKPRYQYSFDYWGQGTQVTVSS | low polyreactivity
QVQLQESGSGLVQAGGSLRLSCAASGNISQYNDIGWYRQAPGKEREPVATINSGSITYYADSVKGRLTISRDNAKNTVYLEMNSLKPEDTAVYYGAVKQHGFVYLEYWGQGTQVTVSR | high polyreactivity
QVQLVESVGGLVQAGGSLRLSCAASGITFSLYAAMGWYRQAPGKERELVAAISWRGGNTYYADSVKGRFTISRDNAKNTVYLQMNSLKPEDTAVYYCAARRTNLPVNFYYWGQGTQVTVSS | high polyreactivity
QVQLVESGGGLVQAGGSLRLSCAASGSTVVRYGMGSYRQAPGKERELVAVISRSGGSTYYADSVKARFTISRDNAKNTVFLQMNSLKPEDTAVYYCAITRYGNPNSGGVGYWGQGTQVTVSS | high polyreactivity

Sequence | polyreactivity (PSR sort gate)
QVQLVESGGGLVQAGGSLRLSCAASGRTFYRNAMGWSRQAPGKERELVAAISYRGGRTYYADSVKGRFTISRDNAKNTVYLQMNSLKPEDTAVYYCAADLRTRVPYDYWGQGTQVTVSS | high polyreactivity
HVQLVESGVGLVQAAGILRLSCAASGRTFSVYVMGWYRQATGKERELVAAISTSGARTYYADSVKGRFTISRDHAKNTVFLQMNSLKPEATAVYYCGARAIYKSKYDYWGHGTQVTVSS | high polyreactivity
QVHHEESGGGLVQAGGSLRLSCAASGGIFYLNDMGWYRQAPGKERELVAAITGTGGNTYYADSVKGRFTISRDNAKNTVYLQMNSLKPEDTAVYYCAAQHYWVTSYLSSYDYWGQGTQVTVSS | low polyreactivity
QVQLVESGGGLVQAGGSLRLSCAASGIIFYKYAMGWKRQGPGKERELVAAITSGGRRTYYADSVKGRFTISRDNAKNTVYLLMNSLKPEDTEAFYCAARFSYPWLYLFVYWGQVTQVTVSS | high polyreactivity
QVQLVESGGGLVQAGGSLRLSCAASGRTFYYNAMGWYRQAPGKERELVAVITRGSTYYADSVKGRFSISRDNAKNTVYLQMKSLKPEDTAVYYCCKYRHYHRGYDYWGQGTQVTVSS | high polyreactivity
QVQLVESGGGLDQAGGTLRLSCAASGSTFSDYAMGWYRQAPGKERQLVAAISVSDGSTYYADSVKGRFTISRDNAKNTVYFQMNSLKPEDTAVYYCAAEYPYFVYSYFRFDYWGQGTQVTVSS | low polyreactivity
QVQLVDSGGGLVQAGGSLRLSCAASGSIFRGYAMGWYRQAPGKERELVAAIRRRAGTTYYADSVKARFTISRDNAKNTVYLQMNSLKPEDTAVYYCAVERYHSGDDYLGQGTQVTVSS | high polyreactivity
QVQHVESGGGLVQAGRSLRLSCAATGRTFGSNAMGWYRQAPGKERELVAAISLRGGRTYYADSVKGRFTISRDNAKNTVYLQMNSLKPEDTAVYYCNAVHYLYGARSRLTYDYWGQGTQVTVSS | high polyreactivity
QVQLVESGGGLVQAGGSLRLSCAASGSIFYGYDMGWYRQAPGKERELVAAITIGGGTTYYADSVKGRFTISRDNAKNTVYLQMNSLKPEDTAVYYCAAEFYYTIYSNKVGYDYWGQGTQVTVSS | high polyreactivity
QVQLVESGGGLVQAGGSLRLSCAASGRILRGNAMGWYRQAPGKEREFFAAIRRSGGTSYYADSVKGRFTISRDNAKNTVYLQMNSLKPEDTAVYYCAATKYQTSGDRGYEHWGQGTQVTVSS | low polyreactivity
QVQLVESGGGLVQAGGRLLLSCAASGSTFTHYAMGWYRQAPGKERELVPAISWGAGSTYYADSVKGRFTNSRDNAKNTVYLQMNSLKPEDTAVYYCAAYLYRYGHKYYSWGQGTQVTVSS | high polyreactivity
QVQLVESGGGLVQAGCSLRLSCAASGRTLFKYAMGWYRQAPGKERELVAVISWGGGITYYADSVKGRFTISRDNAKNTVYLKMNSLKPEDTAVYYCATDSHARFYRYYWGQGTQVTVSS | low polyreactivity
QVQLVESGGGLVQAGGSLRLSCAASGFTFGYYAMGWYRQAPGKERELVAAITYSGGSTYYADSVKGRFTISRDNAKNTVYLQMNSLNPEDTAVYYCNAYARRYYYGRWYGEFDYWGQGTQVTLSS | low polyreactivity
QVQLVESGGGLVQAGGSLRLSCAASGFIFRYYAMGWSRQAPGKERELVASINSGGSTYYADSVKGRFTISRDNAKNTVYLQMNSLKPEDTAVYYCAVVLQYDWAYEKSYYWGQGTQVTVSS | low polyreactivity
QVQLVDTGGGLVQAGGSLRLSCAASGSTFYFNAMGWYRLAPGKERELVAAISYSGGSTYYADSVKGRFTISRDNAKNTVYFQMNSLKPEDTAVYYCNARGLKSYYPGYWFRGDDWGQGTQVTVSS | high polyreactivity
QVQLEESGGGLVHAGGSLRLSSAASGYTFKYYALACYRQAPGKERELVAAISARGGSTYYADSVKGRFTISRDNAKNTVYLQMNSVKPEDTAVYFCAARSGYGPYRMDYWGQGTQVTVSS | high polyreactivity
